The text below walks through data of patent US20120058906A1 (published 2012).

The target of experiment [1] is T1, Recombinant Human DLL4 (R&D Systems Cat#1506-D4/CF) (human, UniProt Q9NR61 27-524).
T1 construct: Bought recombinant protein; also called delta-like protein 4; rHuman DLL4
The experiment in a line: ECL (MSD Multi-Spot) binding assay, antigen spotted on plate; Fab 120 nM; blank spot 363.

The target in experiment [2] is T2, rHuman Notch-1/Fc Chimera, CF (R&D Systems Cat#3647-TK) (human, UniProt P46531 19-526).
T2 construct: Bought Fc chimera; Fc part of the bought chimera not given
Described as above.

In experiment [3] the target is T3, rHuman CD44/Fc Chimera, CF (R&D Systems Cat#3660-CD) (human, UniProt P16070 21-220).
T3 construct: Bought Fc chimera; Fc part of the bought chimera not given
The description is as above.

Experiment [4] has as its target T4, rHuman Erythropoietin R/Fc Chimera, CF (R&D Systems Cat#963-ER) (human, UniProt P19235 25-250).
T4 construct: Bought Fc chimera; also called EPO R/Fc; Epo R; Fc part of the bought chimera not given
T4 sequence: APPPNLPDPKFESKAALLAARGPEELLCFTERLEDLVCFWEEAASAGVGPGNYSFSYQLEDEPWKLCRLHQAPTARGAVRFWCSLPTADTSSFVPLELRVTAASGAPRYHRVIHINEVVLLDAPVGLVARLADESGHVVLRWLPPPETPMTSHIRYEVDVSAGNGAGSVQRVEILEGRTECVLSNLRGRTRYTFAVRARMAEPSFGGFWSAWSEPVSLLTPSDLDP
The experiment is described as above.

In experiment [5] the target is T5, rHuman P-Cadherin/Fc Chimera, CF (R&D Systems Cat#861-PC) (human, UniProt P22223 108-654).
T5 construct: Bought Fc chimera; also called CDH3; Fc part of the bought chimera not given
The experiment is described as above.

Experiment [6] concerns the target T6, rHuman EGF R/Fc Chimera, CF (R&D Systems Cat#344-ER) (human, UniProt P00533 25-645).
T6 construct: Purchased Fc chimera; not shown: Fc portion of the purchased chimera
Description: MSD ECL multi-spot plate, antigen immobilized; Fab 40 nM; blank spot 518.

The target of experiment [7] is T7, rHuman ErbB2/Fc Chimera, CF (R&D Systems Cat#1129-ER) (human, UniProt P04626 23-652).
T7 construct: Purchased Fc chimera; also called HER2/neu; not shown: Fc portion of the purchased chimera
The description is as above.

In experiment [8] the target is T8, rHuman CD44/Fc Chimera, CF (R&D Systems Cat#3660-CD) (human, UniProt P16070 21-220).
T8 construct: Purchased Fc chimera; not shown: Fc portion of the purchased chimera
The description is as above.

Experiment [9] deals with T9, Recombinant Human DLL4 (R&D Systems Cat#1506-D4/CF) (human, UniProt Q9NR61 27-524).
T9 construct: Purchased recombinant protein; also called delta-like protein 4
Described as above.

Experiment [10] concerns the target T10, rHuman HGF R/c-MET/Fc Chimera, CF (R&D Systems Cat#358-MT/CF) (human, UniProt P08581 25-932).
T10 construct: Purchased Fc chimera; also called HGF R/Fc; not shown: Fc portion of the purchased chimera
The experiment is described as above.

Experiment [11] concerns the target T11, rHuman Erythropoietin R/Fc Chimera, CF (R&D Systems Cat#963-ER) (human, UniProt P19235 25-250).
T11 construct: Purchased Fc chimera; also called EPO R/Fc; Epo R; not shown: Fc portion of the purchased chimera
T11 sequence: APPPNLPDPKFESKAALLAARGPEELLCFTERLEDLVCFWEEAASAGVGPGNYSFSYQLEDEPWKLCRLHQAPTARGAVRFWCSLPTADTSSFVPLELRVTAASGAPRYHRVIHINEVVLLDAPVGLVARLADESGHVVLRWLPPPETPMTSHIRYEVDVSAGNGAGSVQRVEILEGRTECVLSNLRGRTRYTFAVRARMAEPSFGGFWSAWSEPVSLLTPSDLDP
Described as above.

The target of experiment [12] is T12, rHuman Notch-1/Fc Chimera, CF (R&D Systems Cat#3647-TK) (human, UniProt P46531 19-526).
T12 construct: Purchased Fc chimera; not shown: Fc portion of the purchased chimera
Described as above.

In experiment [13] the target is T13, rHuman IGF-1 sR (IGF-1 sR), CF (R&D Systems Cat#391-GR) (human, UniProt P08069 31-932).
T13 construct: Purchased soluble receptor; also called insulin-like growth factor-1 soluble receptor; IGF-R1
The experiment is described as above.

Experiment [14] concerns the target T14, rHuman P-Cadherin/Fc Chimera, CF (R&D Systems Cat#861-PC) (human, UniProt P22223 108-654).
T14 construct: Purchased Fc chimera; not shown: Fc portion of the purchased chimera
The description is as above.

The target in experiment [15] is T6, rHuman EGF R/Fc Chimera, CF (R&D …). The experiment in a line: MSD ECL multi-spot plate, antigen immobilized; Fab 1.6 nM; blank spot 449.
Experiment [16] addresses T7, rHuman ErbB2/Fc Chimera, CF (R&D …). The description is as above.
Experiment [17] addresses T9, Recombinant Human DLL4 (R&D Systems …). The experiment is described as above.
Experiment [18] deals with T13, rHuman IGF-1 sR (IGF-1 sR), CF (R&D …). The experiment is described as above.
In experiment [19] the target is T14, rHuman P-Cadherin/Fc Chimera, CF (R&D …). The description is as above.
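Note: blank spot per well as comparator with Hit at signal to blank ratio of 4 or more.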

B1: Fab VH6-1_IGHD3-3*01_IGHJ4*01 & V4-3_IGLJ4*01 (Fab, V domains shown)
VH: QVQLQQSGPGLVKPSQTLSLTCAISGDSVSSNSAAWNWIRQSPSRGLEWLGRTYYRSKWYNDYAVSVKSRITINPDTSKNQFSLQLNSVTPEDTAVYYCAREYYDFWSGYYTDYFDYWGQGTLVTVSS
VL: QPVLTQPTSLSASPGASARLTCTLRSGINLGSYRIFWYQQKPESPPRYLLSYYSDSSKHQGSGVPSRFSGSKDASSNAGILVISGLQSEDEADYYCMIWHSSASFVFGGGTQLIIL
notes: Tested as a Fab made in E. coli; also called IGHV6-1*01
For B1, the ECL signal in experiment [1] is 938; in experiment [2], 472; in [3] it was 442; in experiment [4], 431; in experiment [5], 450.

B2: Fab VH5-51_IGHD5-18*01>3_IGHJ4*01_G100K & V3-4_IGLJ1*01 (Fab, V domains shown)
VH: EVQLVQSGAEVKKPGESLKISCKGSGYSFTSYWIGWVRQMPGKGLEWMGIIYPGDSDTRYSPSFQGQVTISADKSISTAYLQWSSLKASDTAMYYCARRKYSYGYDYFDYWGQGTLVTVSS
VL: QTVVTQEPSFSVSPGGTVTLTCGLSSGSVSTSYYPSWYQQTPGQAPRTLIYSTNTRSSGVPDRFSGSILGNKAALTITGAQADDESDYYCVLYMGSGISYVFGTGTKVTVL
notes: It was expressed as a Fab: CH1 with tags from Plasmid A and lambda CL from Plasmid E; also called Fab No. 22
In the case of B2, the ECL signal in [6] is 1150 ECL signal; in experiment [7] it was 1390 ECL signal; in experiment [8], 857 ECL signal; in experiment [9] it was 35900 ECL signal; in experiment [10], 1310 ECL signal; in experiment [11], 979 ECL signal. Moreover, the ECL signal in experiment [12] was found to be 875 ECL signal; in experiment [13], 1270 ECL signal; in experiment [14] it was 744 ECL signal.

B3: Fab VH5-51_IGHD5-18*01>3_IGHJ4*01_G100R & V3-4_IGLJ1*01 (Fab, V domains shown)
VH: EVQLVQSGAEVKKPGESLKISCKGSGYSFTSYWIGWVRQMPGKGLEWMGIIYPGDSDTRYSPSFQGQVTISADKSISTAYLQWSSLKASDTAMYYCARRRYSYGYDYFDYWGQGTLVTVSS
VL: QTVVTQEPSFSVSPGGTVTLTCGLSSGSVSTSYYPSWYQQTPGQAPRTLIYSTNTRSSGVPDRFSGSILGNKAALTITGAQADDESDYYCVLYMGSGISYVFGTGTKVTVL
notes: It was expressed as a Fab: CH1 with tags from Plasmid A and lambda CL from Plasmid E; also called Fab No. 23
Turning to B3, the ECL signal in experiment [15] amounted to 1200 ECL signal; in [16], 1440 ECL signal; in experiment [17], 1540 ECL signal; in [18], 1330 ECL signal; in experiment [19], 666 ECL signal.
